For experiment [1], the target named is T1, VEGFR2(ΔKD)m -20-809 (Homo sapiens, UniProt P35968).
T1 chain: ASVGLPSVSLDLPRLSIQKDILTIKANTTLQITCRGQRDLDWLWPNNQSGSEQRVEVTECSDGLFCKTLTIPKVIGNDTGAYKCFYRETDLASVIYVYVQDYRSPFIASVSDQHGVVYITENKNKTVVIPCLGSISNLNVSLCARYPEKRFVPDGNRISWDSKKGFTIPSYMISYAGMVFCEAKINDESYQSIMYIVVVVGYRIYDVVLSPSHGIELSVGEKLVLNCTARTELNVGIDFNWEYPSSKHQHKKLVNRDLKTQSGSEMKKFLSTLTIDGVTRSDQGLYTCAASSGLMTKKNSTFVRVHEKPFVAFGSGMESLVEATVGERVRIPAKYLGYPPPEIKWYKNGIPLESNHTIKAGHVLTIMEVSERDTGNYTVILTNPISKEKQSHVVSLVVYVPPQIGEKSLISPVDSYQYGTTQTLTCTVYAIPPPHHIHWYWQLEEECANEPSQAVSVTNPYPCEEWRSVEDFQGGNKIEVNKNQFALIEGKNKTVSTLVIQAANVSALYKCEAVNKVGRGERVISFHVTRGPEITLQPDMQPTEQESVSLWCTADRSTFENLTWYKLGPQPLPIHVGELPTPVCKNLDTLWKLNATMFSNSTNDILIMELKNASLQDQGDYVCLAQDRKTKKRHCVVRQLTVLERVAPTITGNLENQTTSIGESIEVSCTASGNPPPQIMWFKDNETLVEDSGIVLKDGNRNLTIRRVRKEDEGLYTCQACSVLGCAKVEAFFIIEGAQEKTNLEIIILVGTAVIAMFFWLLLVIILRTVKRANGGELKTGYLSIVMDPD
Briefly: competition RIA.

Experiment [2] concerns the target T1, VEGFR2(ΔKD)m -20-809. The experiment in a line: ELISA.
The target of experiment [3] is T1, VEGFR2(ΔKD)m -20-809. Briefly: solid-phase radioligand binding.

B1: VEGF161-CPG2(Q)3-H6 1-161 (protein)
chain: MTDRQTDTAPSPSYHLLPGRRRTVDAAASRGQGPEPAPGGGVEGVGARGVALKLFVQLLGCSRFGGAVVRAGEAEPSGAARSASSGREEPQPEEGEEEEEKEEERGPQWRLGARKPGSWTGEAAVCADSAPAARAPQALARASGRGGRVARRGAEESGPPH
modifications: fusion to N-terminus of CPG2(Q)3 (aa 23-415), H6 tag
With B1, the Kd (usually a measure of binding affinity in units of concentration) is 3.3 nM in the experiment with VEGFR2(ΔKD)m -20-809 [1] and 1.06 nM in the experiment with VEGFR2(ΔKD)m -20-809 [2].

B2: CPG2(Q)3-VEGF109-H6 1-109 (protein)
chain: MTDRQTDTAPSPSYHLLPGRRRTVDAAASRGQGPEPAPGGGVEGVGARGVALKLFVQLLGCSRFGGAVVRAGEAEPSGAARSASSGREEPQPEEGEEEEEKEEERGPQW
modifications: fusion to C-terminus of CPG2(Q)3 (aa 23-415), H6 tag
Consider B2, for which the Kd is 1.3 nM with VEGFR2(ΔKD)m -20-809 [1] and 0.75 nM in the experiment with VEGFR2(ΔKD)m -20-809 [2].

B3: [125I]VEGF (protein)
chain: MTDRQTDTAPSPSYHLLPGRRRTVDAAASRGQGPEPAPGGGVEGVGARGVALKLFVQLLGCSRFGGAVVRAGEAEPSGAARSASSGREEPQPEEGEEEEEKEEERGPQWRLGARKPGSWTGEAAVCADSAPAARAPQALARASGRGGRVARRGAEESGPPHSPSRRGSASRAGPGRASETMNFLLSWVHWSLALLLYLHHAKWSQAAPMAEGGGQNHHEVVKFMDVYQRSYCHPIETLVDIFQEYPDEIEYIFKPSCVPLMRCGGCCNDEGLECVPTEESNITMQIMRIKPHQGQHIGEMSFLQHNKCECRPKKDRARQEKKSVRGKGKGQKRKRKKSRYKSWSVPCGPCSERRKHLFVQDPQTCKCSCKNTDSRCKARQLELNERTCRCDKPRR
modifications: 125I-labelled VEGF
Turning to B3, in the experiment with VEGFR2(ΔKD)m -20-809 [3], binding was put at a Kd of 0.51 nM.

B4: VEGF115-CPG2(Q)3-H6 1-115 (protein)
chain: MTDRQTDTAPSPSYHLLPGRRRTVDAAASRGQGPEPAPGGGVEGVGARGVALKLFVQLLGCSRFGGAVVRAGEAEPSGAARSASSGREEPQPEEGEEEEEKEEERGPQWRLGARK
modifications: fusion to N-terminus of CPG2(Q)3 (aa 23-415), H6 tag
Take B4: the Kd with VEGFR2(ΔKD)m -20-809 [1] is 9.6 nM; in the experiment with VEGFR2(ΔKD)m -20-809 [2] it was 0.51 nM.

These data come from article PMC2377106 (2003).
